Laboratory results reported in the supplement of paper PMC10724198.
± gives the standard deviation of the averaged measurements.

Tested on: Saccharomyces cerevisiae
Assay: protein stability index of tFT-peptide fusion (C-terminal peptide) (PSI (0-1 scale)); higher = more stable (slower turnover)
Details: temperature: 30 C
Experimental: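 MPS profiling in S. cerevisiae of the yeast C-terminome library: the last 12 aa of each annotated ORF are fused to the C-terminus of a sfGFP-mCherry timer, after a GGGS linker. Cells are FACS-sorted into 8 mCherry/sfGFP bins and deep-sequenced. PSI runs from 0 (unstable) to 1 (stable); wild type and das1Δ backgrounds, two technical replicates each.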

[1] = genetic background: das1 deletion

Row | Sequence | protein stability index [1] | protein stability index (genetic background: wild type)
1 | KKKVEFSFPDDI [MIL1 C-terminal 12 aa] | 0.701 ± 0.0087 | 0.73 ± 0.016
2 | ILKPYYIWNNRN [ARR3 C-terminal 12 aa] | 0.7161 ± 0.0069 | 0.276 ± 0.0074
3 | YDEIVPLMSDEE [ECM21 C-terminal 12 aa] | 0.7035 ± 0.0035 | 0.716 ± 0.057
4 | PAETTDEGWTMI [ATG26 C-terminal 12 aa] | 0.704 ± 0.023 | 0.68 ± 0.014
5 | EDESLNSSRSTT [RCF3 C-terminal 12 aa] | 0.6802 ± 0.0033 | 0.691 ± 0.013
6 | ELSMIMEHFSQQ [RPS12 C-terminal 12 aa] | 0.72 ± 0.02 | 0.7056 ± 0.0036
7 | HTPSLKTWSTIK [FKS1 C-terminal 12 aa] | 0.7108 ± 0.0063 | 0.711 ± 0.019
8 | YDANGSSSTIKR [MAM3 C-terminal 12 aa] | 0.736 ± 0.011 | 0.7007 ± 0.00097
9 | ATRNLNQYWRVL [YAL019W-A C-terminal 12 aa] | 0.68 ± 0.011 | 0.58 ± 0.023
10 | EKEALWKFAKRL [ATP10 C-terminal 12 aa] | 0.699 ± 0.032 | 0.3037 ± 0.00067
11 | DDECTYKMAKFK [YNL303W C-terminal 12 aa] | 0.68172 ± 0.00037 | 0.664 ± 0.035
12 | LWNEFLSSINEK [ECM31 C-terminal 12 aa] | 0.736 ± 0.036 | 0.743 ± 0.06
13 | FEYEPPKFNLSE [GTB1 C-terminal 12 aa] | 0.689 ± 0.025 | 0.659 ± 0.037
14 | GWQTGALIIKKH [SAF1 C-terminal 12 aa] | 0.729 ± 0.0083 | 0.763 ± 0.11
15 | QAERQLYDAYFH [YFL064C C-terminal 12 aa] | 0.732 ± 0.023 | 0.733 ± 0.038
16 | LTFDVKLVSMKN [FPR3 C-terminal 12 aa] | 0.679 ± 0.025 | 0.667 ± 0.046
17 | ASEKEKSECVVM [MIY2 C-terminal 12 aa] | 0.733 ± 0.017 | 0.745 ± 0.0097

Row | Sequence | protein stability index [1] | protein stability index (genetic background: wild type)
18 | MQTKIEHYMESI [MRX12 C-terminal 12 aa] | 0.712 ± 0.028 | 0.68 ± 0.053
19 | NFQREVIDNSKL [LDH1 C-terminal 12 aa] | 0.697 ± 0.015 | 0.719 ± 0.067
20 | DNFRERYFNNFN [TRM11 C-terminal 12 aa] | 0.71368 ± 0.00039 | 0.6816 ± 0.0054
21 | ALNQVLGVPGAM [SSH1 C-terminal 12 aa] | 0.683 ± 0.017 | 0.671 ± 0.031
22 | YLLENEPKDSFA [DCP1 C-terminal 12 aa] | 0.703 ± 0.032 | 0.731 ± 0.029
23 | DSIADEFSSLYF [SPR6 C-terminal 12 aa] | 0.7689 ± 0.0042 | 0.721 ± 0.046
24 | SQMTKKRKTKKE [APN1 C-terminal 12 aa] | 0.72 ± 0.015 | 0.786 ± 0.064
25 | YISDHIWKTSSH [YOR302W C-terminal 12 aa] | 0.743 ± 0.04 | 0.698 ± 0.035
26 | DKELDSTFDTFG [MIF2 C-terminal 12 aa] | 0.701 ± 0.012 | 0.699 ± 0.023
27 | KKKSRAKKPGNV [HDA3 C-terminal 12 aa] | 0.685 ± 0.011 | 0.734 ± 0.041
28 | DGITLDMPLFEF [AOS1 C-terminal 12 aa] | 0.7107 ± 0.0043 | 0.731 ± 0.047
29 | TFHTVGDRYEMA [YPR127W C-terminal 12 aa] | 0.7019 ± 0.006 | 0.69654 ± 0.00054
30 | EKANDIGFNKFR [RPS29A C-terminal 12 aa] | 0.678 ± 0.014 | 0.7106 ± 0.006
31 | YTPDQGVSLIDL [ENT2 C-terminal 12 aa] | 0.6978 ± 0.005 | 0.7 ± 0.015
32 | YVSHKGFITEDL [RPL9A C-terminal 12 aa] | 0.689 ± 0.055 | 0.679 ± 0.035
33 | SKNILSFFTRKK [RAD30 C-terminal 12 aa] | 0.774 ± 0.025 | 0.673 ± 0.0077
34 | VFRIVARGYVGW [BBC1 C-terminal 12 aa] | 0.701 ± 0.04 | 0.691 ± 0.046
